{"source": "paper doi:10.1101/438903", "biological_target": "DY-547P1 labelled NDC80-C Bonsai (ΔHec1 1-80)", "experiment": "MST", "data": [{"binder": "MPS1^WT (1xNTE, residues 1-808), recombinant from insect cells (enzyme) MESEDLSGRELTIDSIMNKVRDIKNKFKNEDLTDELSLNKISADTTDNSGTVNQIMMMANNPEDWLSLLLKLEKNSVPLSDALLNKLIGRYSQAIEALPPDKYGQNESFARIQVRFAELKAIQEPDDARDYFQMARANCKKFAFVHISFAQFELSQGNVKKSKQLLQKAVERGAVPLEMLEIALRNLNLQKKQLLSEEEKKNLSASTVLTAQESFSGSLGHLQNRNNSCDSRGQTTKARFLYGENMPPQDAEIGYRNSLRQTNKTKQSCPFGRVPVNLLNSPDCDVKTDDSVVPCFMKRQTSRSECRDLVVPGSKPSGNDSCELRNLKSVQNSHFKEPLVSDEKSSELIITDSITLKNKTESSLLAKLEETKEYQEPEVPESNQKQWQSKRKSECINQNPAASSNHWQIPELARKVNTEQKHTTFEQPVFSVSKQSPPISTSKWFDPKSICKTPSSNTLDDYMSCFRTPVVKNDFPPACQLSTPYGQPACFQQQQHQILATPLQNLQVLASSSANECISVKGRIYSILKQIGSGGSSKVFQVLNEKKQIYAIKYVNLEEADNQTLDSYRNEIAYLNKLQQHSDKIIRLYDYEITDQYIYMVMECGNIDLNSWLKKKKSIDPWERKSYWKNMLEAVHTIHQHGIVHSDLKPANFLIVDGMLKLIDFGIANQMQPDTTSVVKDSQVGTVNYMPPEAIKDMSSSRENGKSKSKISPKSDVWSLGCILYYMTYGKTPFQQIINQISKLHAIIDPNHEIEFPDIPEKDLQDVLKCCLKRDPKQRISIPELLAHPYVQIQTHPVNQMAKGTTEE", "values": [{"measurement": "Kd", "result": 300, "unit": "nM"}]}]}
